# Reference: publication PMC9482650, “Quantitative fragmentomics allow affinity mapping of interactomes” (Nature Communications, 2022)
# Target: LIMK1, P53667
# Assay: holdup assay
# Design: key: below the threshold = too weak to quantify, mostly under pKd 3.1 to 4
# Conditions: plain residues with an end cap or a label only (N-terminal biotin on a linker: ttds)
# Chain of LIMK1, P53667 (P53667 155-268): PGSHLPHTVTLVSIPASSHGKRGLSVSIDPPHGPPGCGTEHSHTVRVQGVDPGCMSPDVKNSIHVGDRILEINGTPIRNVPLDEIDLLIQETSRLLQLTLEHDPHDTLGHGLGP
row,Binder,pKd
1,"PSRDRKETSI [RALBP1, Q15311]",4.16
2,"SRSRRRETAL [HPV33-E6, P06427]",below the threshold
3,"KLVIKTETTV [RASSF6, Q6ZTQ3]",4.37

# Target: O00233
# Assay: holdup assay
# Design: key: below the threshold = too weak to quantify, mostly under pKd 3.1 to 4
# Conditions: plain residues with an end cap or a label only (N-terminal biotin on a linker: ttds)
row,Binder,pKd
1,"PSRDRKETSI [RALBP1, Q15311]",below the threshold
2,"KLVIKTETTV [RASSF6, Q6ZTQ3]",below the threshold

# Target: O00560
# Assay: holdup assay
# Design: key: below the threshold = too weak to quantify, mostly under pKd 3.1 to 4
# Conditions: plain residues with an end cap or a label only (N-terminal biotin on a linker: ttds)
row,Binder,pKd
1,"PSRDRKETSI [RALBP1, Q15311]",below the threshold
2,"KLVIKTETTV [RASSF6, Q6ZTQ3]",below the threshold

# Target: O15021
# Assay: holdup assay
# Design: key: below the threshold = too weak to quantify, mostly under pKd 3.1 to 4
# Conditions: plain residues with an end cap or a label only (N-terminal biotin on a linker: ttds)
row,Binder,pKd
1,"PSRDRKETSI [RALBP1, Q15311]",below the threshold
2,"KLVIKTETTV [RASSF6, Q6ZTQ3]",below the threshold

# Target: O43166
# Assay: holdup assay
# Design: key: below the threshold = too weak to quantify, mostly under pKd 3.1 to 4
# Conditions: plain residues with an end cap or a label only (N-terminal biotin on a linker: ttds)
row,Binder,pKd
1,"PSRDRKETSI [RALBP1, Q15311]",below the threshold
2,"KLVIKTETTV [RASSF6, Q6ZTQ3]",below the threshold

# Target: O60759
# Assay: holdup assay
# Design: key: below the threshold = too weak to quantify, mostly under pKd 3.1 to 4
# Conditions: plain residues with an end cap or a label only (N-terminal biotin on a linker: ttds)
row,Binder,pKd
1,"PSRDRKETSI [RALBP1, Q15311]",below the threshold
2,"KLVIKTETTV [RASSF6, Q6ZTQ3]",below the threshold

# Target: O75970
# Assay: holdup assay
# Design: key: below the threshold = too weak to quantify, mostly under pKd 3.1 to 4
# Conditions: plain residues with an end cap or a label only (N-terminal biotin on a linker: ttds)
row,Binder,pKd
1,"PSRDRKETSI [RALBP1, Q15311]",below the threshold
2,"KLVIKTETTV [RASSF6, Q6ZTQ3]",below the threshold

# Target: PTPN13_2, Q12923
# Assay: holdup assay
# Design: key: below the threshold = too weak to quantify, mostly under pKd 3.1 to 4
# Conditions: plain residues with an end cap or a label only (N-terminal biotin on a linker: ttds)
# Chain of PTPN13_2, Q12923 (Q12923 1363-1462): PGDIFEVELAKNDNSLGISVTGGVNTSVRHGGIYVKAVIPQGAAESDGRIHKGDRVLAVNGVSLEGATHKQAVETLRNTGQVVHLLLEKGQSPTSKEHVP
row,Binder,pKd
1,"PSRDRKETSI [RALBP1, Q15311]",3.79
2,"KLVIKTETTV [RASSF6, Q6ZTQ3]",below the threshold

# Target: Q12923
# Assay: holdup assay
# Design: key: below the threshold = too weak to quantify, mostly under pKd 3.1 to 4
# Conditions: plain residues with an end cap or a label only (N-terminal biotin on a linker: ttds)
row,Binder,pKd
1,"PSRDRKETSI [RALBP1, Q15311]",below the threshold
2,"KLVIKTETTV [RASSF6, Q6ZTQ3]",below the threshold

# Target: Q5TCQ9
# Assay: holdup assay
# Design: key: below the threshold = too weak to quantify, mostly under pKd 3.1 to 4
# Conditions: plain residues with an end cap or a label only (N-terminal biotin on a linker: ttds)
row,Binder,pKd
1,"PSRDRKETSI [RALBP1, Q15311]",below the threshold
2,"KLVIKTETTV [RASSF6, Q6ZTQ3]",below the threshold

# Target: Q6ZWJ1
# Assay: holdup assay
# Design: key: below the threshold = too weak to quantify, mostly under pKd 3.1 to 4
# Conditions: plain residues with an end cap or a label only (N-terminal biotin on a linker: ttds)
row,Binder,pKd
1,"PSRDRKETSI [RALBP1, Q15311]",below the threshold
2,"KLVIKTETTV [RASSF6, Q6ZTQ3]",below the threshold

# Target: Q70Z35
# Assay: holdup assay
# Design: key: below the threshold = too weak to quantify, mostly under pKd 3.1 to 4
# Conditions: plain residues with an end cap or a label only (N-terminal biotin on a linker: ttds)
row,Binder,pKd
1,"PSRDRKETSI [RALBP1, Q15311]",below the threshold
2,"KLVIKTETTV [RASSF6, Q6ZTQ3]",below the threshold

# Target: Q8IUC4
# Assay: holdup assay
# Design: key: below the threshold = too weak to quantify, mostly under pKd 3.1 to 4
# Conditions: plain residues with an end cap or a label only (N-terminal biotin on a linker: ttds)
row,Binder,pKd
1,"PSRDRKETSI [RALBP1, Q15311]",below the threshold
2,"KLVIKTETTV [RASSF6, Q6ZTQ3]",below the threshold

# Target: Q8TB45
# Assay: holdup assay
# Design: key: below the threshold = too weak to quantify, mostly under pKd 3.1 to 4
# Conditions: plain residues with an end cap or a label only (N-terminal biotin on a linker: ttds)
row,Binder,pKd
1,"PSRDRKETSI [RALBP1, Q15311]",below the threshold
2,"KLVIKTETTV [RASSF6, Q6ZTQ3]",below the threshold

# Target: Q8TDM6
# Assay: holdup assay
# Design: key: below the threshold = too weak to quantify, mostly under pKd 3.1 to 4
# Conditions: plain residues with an end cap or a label only (N-terminal biotin on a linker: ttds)
row,Binder,pKd
1,"PSRDRKETSI [RALBP1, Q15311]",below the threshold
2,"KLVIKTETTV [RASSF6, Q6ZTQ3]",below the threshold

# Target: Q8TEW0
# Assay: holdup assay
# Design: key: below the threshold = too weak to quantify, mostly under pKd 3.1 to 4
# Conditions: plain residues with an end cap or a label only (N-terminal biotin on a linker: ttds)
row,Binder,pKd
1,"PSRDRKETSI [RALBP1, Q15311]",below the threshold
2,"KLVIKTETTV [RASSF6, Q6ZTQ3]",below the threshold

# Target: Q92614
# Assay: holdup assay
# Design: key: below the threshold = too weak to quantify, mostly under pKd 3.1 to 4
# Conditions: plain residues with an end cap or a label only (N-terminal biotin on a linker: ttds)
row,Binder,pKd
1,"PSRDRKETSI [RALBP1, Q15311]",below the threshold
2,"KLVIKTETTV [RASSF6, Q6ZTQ3]",below the threshold

# Target: Q96FS4
# Assay: holdup assay
# Design: key: below the threshold = too weak to quantify, mostly under pKd 3.1 to 4
# Conditions: plain residues with an end cap or a label only (N-terminal biotin on a linker: ttds)
row,Binder,pKd
1,"PSRDRKETSI [RALBP1, Q15311]",below the threshold
2,"KLVIKTETTV [RASSF6, Q6ZTQ3]",below the threshold

# Target: Q96HC4
# Assay: holdup assay
# Design: key: below the threshold = too weak to quantify, mostly under pKd 3.1 to 4
# Conditions: plain residues with an end cap or a label only (N-terminal biotin on a linker: ttds)
row,Binder,pKd
1,"PSRDRKETSI [RALBP1, Q15311]",below the threshold
2,"KLVIKTETTV [RASSF6, Q6ZTQ3]",below the threshold

# Target: Q96JB8
# Assay: holdup assay
# Design: key: below the threshold = too weak to quantify, mostly under pKd 3.1 to 4
# Conditions: plain residues with an end cap or a label only (N-terminal biotin on a linker: ttds)
row,Binder,pKd
1,"PSRDRKETSI [RALBP1, Q15311]",below the threshold
2,"KLVIKTETTV [RASSF6, Q6ZTQ3]",below the threshold

# Target: Q96JY6
# Assay: holdup assay
# Design: key: below the threshold = too weak to quantify, mostly under pKd 3.1 to 4
# Conditions: plain residues with an end cap or a label only (N-terminal biotin on a linker: ttds)
row,Binder,pKd
1,"PSRDRKETSI [RALBP1, Q15311]",below the threshold
2,"KLVIKTETTV [RASSF6, Q6ZTQ3]",below the threshold

# Target: Q9C0E4
# Assay: holdup assay
# Design: key: below the threshold = too weak to quantify, mostly under pKd 3.1 to 4
# Conditions: plain residues with an end cap or a label only (N-terminal biotin on a linker: ttds)
row,Binder,pKd
1,"PSRDRKETSI [RALBP1, Q15311]",below the threshold
2,"KLVIKTETTV [RASSF6, Q6ZTQ3]",below the threshold

# Target: Q9NPB6
# Assay: holdup assay
# Design: key: below the threshold = too weak to quantify, mostly under pKd 3.1 to 4
# Conditions: plain residues with an end cap or a label only (N-terminal biotin on a linker: ttds)
row,Binder,pKd
1,"PSRDRKETSI [RALBP1, Q15311]",below the threshold
2,"KLVIKTETTV [RASSF6, Q6ZTQ3]",below the threshold

# Target: Q9NR12
# Assay: holdup assay
# Design: key: below the threshold = too weak to quantify, mostly under pKd 3.1 to 4
# Conditions: plain residues with an end cap or a label only (N-terminal biotin on a linker: ttds)
row,Binder,pKd
1,"PSRDRKETSI [RALBP1, Q15311]",below the threshold
2,"KLVIKTETTV [RASSF6, Q6ZTQ3]",below the threshold

# Target: Q9P227
# Assay: holdup assay
# Design: key: below the threshold = too weak to quantify, mostly under pKd 3.1 to 4
# Conditions: plain residues with an end cap or a label only (N-terminal biotin on a linker: ttds)
row,Binder,pKd
1,"PSRDRKETSI [RALBP1, Q15311]",below the threshold

# Target: Q9UDY2
# Assay: holdup assay
# Design: key: below the threshold = too weak to quantify, mostly under pKd 3.1 to 4
# Conditions: plain residues with an end cap or a label only (N-terminal biotin on a linker: ttds)
row,Binder,pKd
1,"PSRDRKETSI [RALBP1, Q15311]",below the threshold
2,"KLVIKTETTV [RASSF6, Q6ZTQ3]",below the threshold

# Target: Q9ULJ8
# Assay: holdup assay
# Design: key: below the threshold = too weak to quantify, mostly under pKd 3.1 to 4
# Conditions: plain residues with an end cap or a label only (N-terminal biotin on a linker: ttds)
row,Binder,pKd
1,"PSRDRKETSI [RALBP1, Q15311]",below the threshold
2,"KLVIKTETTV [RASSF6, Q6ZTQ3]",below the threshold

# Target: Q9UMS6
# Assay: holdup assay
# Design: key: below the threshold = too weak to quantify, mostly under pKd 3.1 to 4
# Conditions: plain residues with an end cap or a label only (N-terminal biotin on a linker: ttds)
row,Binder,pKd
1,"PSRDRKETSI [RALBP1, Q15311]",below the threshold
2,"KLVIKTETTV [RASSF6, Q6ZTQ3]",below the threshold

# Target: Q9Y3R0
# Assay: holdup assay
# Design: key: below the threshold = too weak to quantify, mostly under pKd 3.1 to 4
# Conditions: plain residues with an end cap or a label only (N-terminal biotin on a linker: ttds)
row,Binder,pKd
1,"PSRDRKETSI [RALBP1, Q15311]",below the threshold
2,"KLVIKTETTV [RASSF6, Q6ZTQ3]",below the threshold
